Publication doi:10.1101/2021.11.08.467742

Target: Vibrio maritimus FtsA residues 1-396 (Vibrio maritimus)
Experiment: SPR

fold weaker than the EcFtsA^1-405-EcFtsN^1-32 interaction (SPR): 3 fold
Substance: Vibrio maritimus FtsN cytoplasmic peptide, residues 1-29
